Test results as given in PMC5101480 (Scientific Reports, 2016).

Molecular target: T1, TPR domain of SGTA (SGTA_TPR) (Homo sapiens, UniProt O43765)
T1 construct: thioredoxin A (TxA) fusion (N, cleaved yes); hexahistidine tag (N, cleaved yes); made in house; host or cells: E. coli BL21(DE3) Rosetta
Assay: Isothermal titration calorimetry (ITC), SGTA_TPR titrated into Rpn13 or DMSLD peptide
Assay type: binding
Method: ITC experiments were performed using an ITC-200 microcalorimeter from Microcal (GE Healthcare) at 25 °C following the standard protocol as reported previously. Proteins or peptide samples were prepared in 10 mM potassium phosphate pH 6.0, 100 mM NaCl, 250 μM TCEP. In each titration, either 40 injections of 1 μL or 20 injections of 2 μL of SGTA_TPR each, at a concentration of 1 mM, were added to a sample of Rpn13 or the Rpn13 derived DMSLD peptide at a concentration of 50 μM in the reaction cell. A nonlinear least-squares minimization algorithm was applied to integrated heat data obtained for the titrations, corrected for heats of dilution, in order to fit the experimentally obtained values to a theoretical titration curve. This was performed using the MicroCal-Origin 7.0 software package. ΔH (reaction enthalpy change in kcal/mol), Kb (equilibrium binding constant in per molar), and n (molar ratio between the proteins in the complex) were used as fitting parameters. The reaction entropy, ΔS, was calculated using the relationships ΔG = −RT lnKb (R = 8.314 J/(mol K), T 298 K) where ΔG = ΔH − TΔS. Dissociation constants (Kd) have been determined for each interaction. Binding was assumed to be at one site (n = 1), to determine the binding affinity (Kd) and thermodynamic parameters.

T1 sequence (O43765 84-211): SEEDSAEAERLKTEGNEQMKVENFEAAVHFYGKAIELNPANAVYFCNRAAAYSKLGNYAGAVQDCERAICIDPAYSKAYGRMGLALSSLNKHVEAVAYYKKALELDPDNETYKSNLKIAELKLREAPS

B1: Rpn13_260-407: Rpn13 C-terminal domain (residues 260–407), human, expressed in E. coli (protein)
chain: QPIQLSDLQSILATMNVPAGPAGGQQVDLASVLTPEIMAPILANADVQERLLPYLPSGESLPQTADEIQNTLTSPQFQQALGMFSAALASGQLGPLMCQFGLPAEAVEAANKGDVEAFAKAMQNNAKPEQKEGDTKDKKDEEEDMSLD
modifications: left off: thioredoxin A (TxA), N-terminal, cleaved | His6, N-terminal, cleaved
notes: Rpn13 C-terminal domain (residues 260–407), human, expressed in E. coli
ΔS (ITC) (1 mM SGTA_TPR into 50 μM sample, pH 6.0, 25 °C, calculated from ΔG = −RT lnKb and ΔG = ΔH − TΔS): 10.6 ± 0.8 cal/mol·K | ΔH (ITC) (1 mM SGTA_TPR into 50 μM sample, pH 6.0, 25 °C, one site (n = 1)): -3.37 ± 0.08 kcal/mol | Kd (ITC-200, 1 mM SGTA_TPR injected into 50 μM Rpn13 or DMSLD peptide, 10 mM potassium phosphate pH 6.0, 100 mM NaCl, 250 μM TCEP, 25 °C, one site (n = 1), read-out: dissociation constant, Kd (ITC)): 16.1 ± 1.4 µM
